B1: hSG16.17 vH5 vK4 (antibody, V domains shown)
VH: QVQLVQSGAEVKKPGASVKVSCKASGYTFTDYYIHWVRQAPGQGLEWIGYINPNSGYTKYNENFKTRATMTADKSTNTAYVELSSLRSEDTAVYFCTRYMWERVTGFFDFWGQGTMVTVSS
VL: DIQMTQSPSSVSASVGDRVTITCLASEDISDDLAWYQQKPGKAPKVLVYTTSRLQSGVPSRFSGSGSGTDFTLTISSMQPEDFADYFCQQTYKFPPTFGGGTKVEIKR
notes: also called hSG16.17 19
B2: hSG16.17 vH5 vK5 (antibody, V domains shown)
VH: QVQLVQSGAEVKKPGASVKVSCKASGYTFTDYYIHWVRQAPGQGLEWIGYINPNSGYTKYNENFKTRATMTADKSTNTAYVELSSLRSEDTAVYFCTRYMWERVTGFFDFWGQGTMVTVSS
VL: DIQMTQSPSSVSASVGDRVTITCRASEDISDDLAWYQQKSGKAPKVLVYTTSSLQSGVPSRFSGSGSGTDFTLTISSLQPEDFATYFCQQTYKFPPTFGGGTKVEIKR
notes: also called hSG16.17 20
B3: hSG16.17 vH6 vK5 (antibody, V domains shown)
VH: QVQLVQSRAEVKKPGASVKLSCKASGYTFTDYYMHWVRQAPGQGLEWIGIINPNSGYTSYAQKFQGRVTMTADKSTNTAYVELSSLRSEDTAVYFCTRYMWERVTGFFDFWGQGTMVTVSS
VL: DIQMTQSPSSVSASVGDRVTITCRASEDISDDLAWYQQKSGKAPKVLVYTTSSLQSGVPSRFSGSGSGTDFTLTISSLQPEDFATYFCQQTYKFPPTFGGGTKVEIKR
notes: also called hSG16.17 24
B4: hSG16.17 vH6 vK4 (antibody, V domains shown)
VH: QVQLVQSRAEVKKPGASVKLSCKASGYTFTDYYMHWVRQAPGQGLEWIGIINPNSGYTSYAQKFQGRVTMTADKSTNTAYVELSSLRSEDTAVYFCTRYMWERVTGFFDFWGQGTMVTVSS
VL: DIQMTQSPSSVSASVGDRVTITCLASEDISDDLAWYQQKPGKAPKVLVYTTSRLQSGVPSRFSGSGSGTDFTLTISSMQPEDFADYFCQQTYKFPPTFGGGTKVEIKR
notes: also called hSG16.17 23
B5: hSG16.17 vH6 vK3 (antibody, V domains shown)
VH: QVQLVQSRAEVKKPGASVKLSCKASGYTFTDYYMHWVRQAPGQGLEWIGIINPNSGYTSYAQKFQGRVTMTADKSTNTAYVELSSLRSEDTAVYFCTRYMWERVTGFFDFWGQGTMVTVSS
VL: DIQMTQSPSSVSASVGDRVTITCRASEDISDDLAWYQQKPGKAPKVLVYTTSSLQSGVPSRFSGSGSGTDFTLTISSLQPEDFATYFCQQTYKFPPTFGGGTKVEIKR
notes: also called hSG16.17 22
B6: hSG16.17 vH6 vK2 (antibody, V domains shown)
VH: QVQLVQSRAEVKKPGASVKLSCKASGYTFTDYYMHWVRQAPGQGLEWIGIINPNSGYTSYAQKFQGRVTMTADKSTNTAYVELSSLRSEDTAVYFCTRYMWERVTGFFDFWGQGTMVTVSS
VL: DIQMTQSPSSVSASVGDRVTITCLASEDISDDLAWYQQKPGKAPKVLVYTTSSLQSGVPSRFSGSGSGTDFTLTISSLQPEDFATYFCQQTYKFPPTFGGGTKVEIKR
notes: also called hSG16.17 21
B7: hSG16.17 vH2 vK2 (antibody, V domains shown)
VH: QVQLVQSGAEVKKPGASVKLSCKASGYTFTDYYMHWVRQAPGQGLEWIGRINPNSGYTNYAQKFQGRVTMTADKSINTAYVELSRLRSDDTAVYFCTRYMWERVTGFFDFWGQGTMVTVSS
VL: DIQMTQSPSSVSASVGDRVTITCLASEDISDDLAWYQQKPGKAPKVLVYTTSSLQSGVPSRFSGSGSGTDFTLTISSLQPEDFATYFCQQTYKFPPTFGGGTKVEIKR
notes: also called hSG16.17 5
B8: hSG16.17 vH2 vK5 (antibody, V domains shown)
VH: QVQLVQSGAEVKKPGASVKLSCKASGYTFTDYYMHWVRQAPGQGLEWIGRINPNSGYTNYAQKFQGRVTMTADKSINTAYVELSRLRSDDTAVYFCTRYMWERVTGFFDFWGQGTMVTVSS
VL: DIQMTQSPSSVSASVGDRVTITCRASEDISDDLAWYQQKSGKAPKVLVYTTSSLQSGVPSRFSGSGSGTDFTLTISSLQPEDFATYFCQQTYKFPPTFGGGTKVEIKR
notes: also called hSG16.17 8
B9: hSG16.17 vH2 vK3 (antibody, V domains shown)
VH: QVQLVQSGAEVKKPGASVKLSCKASGYTFTDYYMHWVRQAPGQGLEWIGRINPNSGYTNYAQKFQGRVTMTADKSINTAYVELSRLRSDDTAVYFCTRYMWERVTGFFDFWGQGTMVTVSS
VL: DIQMTQSPSSVSASVGDRVTITCRASEDISDDLAWYQQKPGKAPKVLVYTTSSLQSGVPSRFSGSGSGTDFTLTISSLQPEDFATYFCQQTYKFPPTFGGGTKVEIKR
notes: also called hSG16.17 6
B10: hSG16.17 vH2 vK4 (antibody, V domains shown)
VH: QVQLVQSGAEVKKPGASVKLSCKASGYTFTDYYMHWVRQAPGQGLEWIGRINPNSGYTNYAQKFQGRVTMTADKSINTAYVELSRLRSDDTAVYFCTRYMWERVTGFFDFWGQGTMVTVSS
VL: DIQMTQSPSSVSASVGDRVTITCLASEDISDDLAWYQQKPGKAPKVLVYTTSRLQSGVPSRFSGSGSGTDFTLTISSMQPEDFADYFCQQTYKFPPTFGGGTKVEIKR
notes: also called hSG16.17 7

For the first assay, the target named is T1, human BCMA (B-cell maturation antigen, CD269) expressed on cells (human, UniProt Q02223 1-184).
T1 construct: Endogenous on myeloma lines (NCI-H929, U266, JJN3) or a full-length clone transfected into HEK 293 cells; also called hBCMA; BCMA expressed on NCI-H929 cells
T1 sequence: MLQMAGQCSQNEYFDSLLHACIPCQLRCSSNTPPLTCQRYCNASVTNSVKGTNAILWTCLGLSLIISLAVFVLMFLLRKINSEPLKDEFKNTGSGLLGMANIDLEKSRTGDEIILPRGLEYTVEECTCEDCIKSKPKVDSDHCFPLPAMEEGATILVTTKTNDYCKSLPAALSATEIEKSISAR
Put plainly: cell binding, NCI-H929 cells expressing BCMA, 3-pt assay. The procedure: The six humanized heavy chains and four humanized light chains were tested in all 24 possible permutations for binding to BCMA expressed on NCI-H929 cells, which express about 50,000 molecules of BCMA per cell.
Consider B1, for which the binding result is “binds”.
Regarding B2, the binding result was “binds”.
On the same count and under the same terms, under B3 stands “binds”; under B4, “binds”.
B5: the binding result is reported as “binds”.
Still for that read-out and setting: next, B6: “binds”.

The target in a further assay is T1, human BCMA (B-cell maturation antigen, …). The assay can be described thus: cell binding, U266 cells, full range of concentration points.
For the molecule B7, the binding result was “binds”.
As to B8, the binding result is on record as “binds”.
Still for that read-out and setting: under B9 stands “binds”; under B10, “binds”.
